Laboratory results taken from patent US20180305405A1.
Where no end group is shown, it is not given here.

B1: cyclic nonapeptide RGD-4C (peptide)
peptide: H-CDCRGDCFC-NH2
modifications: disulfide (positions not given here); also: two disulfides, pairing not given here
B2: Eu-labeled RGD-4C (isothiocyanatophenyl-DTPA-Eu-RGD-4C) (peptide)
peptide: CDCRGDCFC-NH2
modifications: disulfide (positions not given here); also: two disulfides among four Cys, pairing not given here, isothiocyanatophenyl-DTPA-Eu conjugated, site not given here

How the values were obtained:
[1] = molecular target: αvβ3 integrin receptor expressed on mouse H5V endothelial cells (mouse) (UniProt P43406); assay: cell-based or functional assay
[2] = molecular target: αvβ3 integrin receptor expressed on mouse H5V endothelial cells (mouse) (UniProt P43406); assay: Scatchard analysis of Eu-RGD-4C binding to H5V cells at 4 °C, time-resolved fluorometry
[3] = molecular target: αvβ3 integrin receptor expressed on mouse H5V endothelial cells (mouse) (UniProt P43406); assay: H5V cell binding assay at 4 °C, time-resolved fluorometry; non-specific binding defined with 1 µM RGD-4C; low ligand concentrations
[4] = molecular target: αvβ3 integrin receptor expressed on mouse H5V endothelial cells (mouse) (UniProt P43406); assay: H5V cell binding assay at 4 °C, time-resolved fluorometry; non-specific binding defined with 1 µM RGD-4C; highest ligand concentration

Chain of αvβ3 integrin receptor expressed on mouse H5V endothelial cells (mouse) (P43406 31-1044, chain 1 of 2): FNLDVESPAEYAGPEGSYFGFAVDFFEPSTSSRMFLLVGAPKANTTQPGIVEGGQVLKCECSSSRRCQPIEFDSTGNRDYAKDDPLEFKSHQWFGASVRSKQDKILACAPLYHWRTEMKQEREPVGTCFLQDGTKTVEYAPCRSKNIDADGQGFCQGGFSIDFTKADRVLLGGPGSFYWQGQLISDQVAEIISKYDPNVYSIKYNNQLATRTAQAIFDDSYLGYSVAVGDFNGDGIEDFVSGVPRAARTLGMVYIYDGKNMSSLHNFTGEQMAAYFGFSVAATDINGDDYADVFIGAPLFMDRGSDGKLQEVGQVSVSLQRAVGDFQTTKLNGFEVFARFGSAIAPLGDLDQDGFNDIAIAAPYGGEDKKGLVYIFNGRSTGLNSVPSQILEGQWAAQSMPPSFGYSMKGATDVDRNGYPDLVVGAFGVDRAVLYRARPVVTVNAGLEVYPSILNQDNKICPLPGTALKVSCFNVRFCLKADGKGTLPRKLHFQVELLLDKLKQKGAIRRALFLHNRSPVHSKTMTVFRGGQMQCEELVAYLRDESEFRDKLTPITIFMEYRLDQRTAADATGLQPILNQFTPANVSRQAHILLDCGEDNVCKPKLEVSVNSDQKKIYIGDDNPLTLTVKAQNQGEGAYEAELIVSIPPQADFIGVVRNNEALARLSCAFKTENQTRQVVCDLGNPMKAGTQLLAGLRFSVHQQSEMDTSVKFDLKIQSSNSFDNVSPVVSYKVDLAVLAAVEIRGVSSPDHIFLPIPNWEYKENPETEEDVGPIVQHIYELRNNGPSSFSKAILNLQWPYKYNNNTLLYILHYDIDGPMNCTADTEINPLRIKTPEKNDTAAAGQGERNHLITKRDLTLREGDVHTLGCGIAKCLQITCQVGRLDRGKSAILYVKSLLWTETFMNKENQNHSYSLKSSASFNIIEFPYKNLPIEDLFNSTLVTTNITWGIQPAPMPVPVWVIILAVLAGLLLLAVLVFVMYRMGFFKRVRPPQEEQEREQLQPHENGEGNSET
Chain of αvβ3 integrin receptor expressed on mouse H5V endothelial cells (mouse) (O54890 26-787, chain 2 of 2, further chain): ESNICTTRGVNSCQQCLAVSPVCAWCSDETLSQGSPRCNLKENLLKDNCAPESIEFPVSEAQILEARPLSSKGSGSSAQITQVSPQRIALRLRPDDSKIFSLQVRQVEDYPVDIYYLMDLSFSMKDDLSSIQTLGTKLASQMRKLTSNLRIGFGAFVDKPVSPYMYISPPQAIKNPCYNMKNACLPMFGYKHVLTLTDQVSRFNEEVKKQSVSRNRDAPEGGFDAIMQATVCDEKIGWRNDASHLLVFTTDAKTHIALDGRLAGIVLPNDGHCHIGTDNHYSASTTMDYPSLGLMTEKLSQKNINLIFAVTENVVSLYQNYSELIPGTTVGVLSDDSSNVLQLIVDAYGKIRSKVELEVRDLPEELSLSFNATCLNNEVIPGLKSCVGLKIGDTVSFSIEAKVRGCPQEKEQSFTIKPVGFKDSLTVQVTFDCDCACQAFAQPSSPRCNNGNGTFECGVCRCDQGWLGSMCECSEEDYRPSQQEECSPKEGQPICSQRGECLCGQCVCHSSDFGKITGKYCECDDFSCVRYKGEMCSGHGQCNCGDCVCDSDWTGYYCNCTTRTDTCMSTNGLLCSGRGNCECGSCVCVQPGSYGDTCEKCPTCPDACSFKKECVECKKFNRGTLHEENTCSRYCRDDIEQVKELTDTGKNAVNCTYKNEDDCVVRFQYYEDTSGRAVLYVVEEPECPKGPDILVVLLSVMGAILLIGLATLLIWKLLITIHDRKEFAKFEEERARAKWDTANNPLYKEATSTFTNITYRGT

Binder | H5V endothelial cell detachment (rounded cells) in cell-rounding assay, 100 µM RGD-4C [1] | Kd [2] | ratio of total binding to non-specific binding [3] | ratio of total binding to non-specific binding [4]
B1 | 99% | – | – | –
B2 | – | 37.2 to 41.3 nM | 1 | 4
